According to article PMC5979038:

Legend:
[1] = biological target: FtsZ-YFP-mts (E. coli); experiment: single-molecule TIRF residence time; subunits labelled with GFP-Booster Atto647N in filaments on the bilayer, about 0.2 μM protein, with GTP, 5 mM free Mg2+ (high-density mesh)
[2] = biological target: FtsZ-YFP-mts (E. coli); experiment: single-molecule TIRF residence time; subunits labelled with GFP-Booster Atto647N in filaments on the bilayer, about 0.2 μM protein, 4 mM GTP, 1 mM free Mg2+ (dynamic rings); double exponential fit with photobleaching term
[3] = biological target: FtsZ-YFP-mts (E. coli); experiment: AUC; sedimentation velocity, 7 μM protein, working buffer, 4 mM GTP and 5 mM Mg2+; monomers to higher-order species

mean residence time of single subunits within the filaments on the membrane [1]: 15.1 s
mean residence time of single subunits within the filaments on the membrane [2]: 11.5 s
percent of protein in higher-order species [3]: 70%
Substance: FtsZ-YFP-mts
